According to patent US20190241662A1 (ADAGENE, published 2019):

Legend:
Assay in all cases: flow cytometry, transfected HEK293F cells, 100 nM antibody [Cont.]
[1] = target: T1, human CD95 on HEK293F cells (human, UniProt P25445 26-335)
T1 construct: whole, on cells
T1 sequence (looked up): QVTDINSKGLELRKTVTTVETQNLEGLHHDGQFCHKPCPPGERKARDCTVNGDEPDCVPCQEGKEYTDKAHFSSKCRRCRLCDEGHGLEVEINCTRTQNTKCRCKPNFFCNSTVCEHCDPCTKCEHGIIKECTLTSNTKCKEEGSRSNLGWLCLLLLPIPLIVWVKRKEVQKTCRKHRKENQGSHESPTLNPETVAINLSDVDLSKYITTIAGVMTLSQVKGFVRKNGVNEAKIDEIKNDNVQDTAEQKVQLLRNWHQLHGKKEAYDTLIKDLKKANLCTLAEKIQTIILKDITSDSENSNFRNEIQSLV
Method: (§1) Antibody selectivity was next examined. Human CTLA4, PD1, LAG3, Tim3, B7H3, CD95, TNFR1, OX40, CD40, PD-L1, BLTA, VISTA, PDL2, ICOS and B7H4 were transiently overexpressed on the surface of HEK293F cells. Transfected cells were washed in pre-chilled 1×PBSA buffer (1.76 mM KH2PO4, 10.14 mM Na2HPO4.12H2O, 2.68 mM KCl, 136.89 mM NaCl and 1% BSA), then incubated with 100 nM test antibodies for 1 hour on ice. Cells were washed once with staining buffer, and Alexa Fluor® 647 conjugated mouse anti-human FC antibodies were added and incubated for 30 minutes on ice, protected from light. Samples were washed once with staining buffer prior to analysis by flow cytometry.

[2] = target: T2, human OX40 on HEK293F cells (human, UniProt P43489 29-277)
T2 construct: whole, on cells
T2 sequence (looked up): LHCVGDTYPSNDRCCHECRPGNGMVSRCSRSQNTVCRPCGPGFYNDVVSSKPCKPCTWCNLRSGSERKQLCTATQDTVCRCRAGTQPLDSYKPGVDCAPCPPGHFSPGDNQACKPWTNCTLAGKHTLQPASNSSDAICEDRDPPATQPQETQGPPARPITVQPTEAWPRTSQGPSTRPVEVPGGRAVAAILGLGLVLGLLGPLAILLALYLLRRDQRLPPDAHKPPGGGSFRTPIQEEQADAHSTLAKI
Method: as §1

[3] = target: T3, human TNFR1 on HEK293F cells (human, UniProt P19438 30-455)
T3 construct: whole, on cells; also called CD120a
T3 sequence (looked up): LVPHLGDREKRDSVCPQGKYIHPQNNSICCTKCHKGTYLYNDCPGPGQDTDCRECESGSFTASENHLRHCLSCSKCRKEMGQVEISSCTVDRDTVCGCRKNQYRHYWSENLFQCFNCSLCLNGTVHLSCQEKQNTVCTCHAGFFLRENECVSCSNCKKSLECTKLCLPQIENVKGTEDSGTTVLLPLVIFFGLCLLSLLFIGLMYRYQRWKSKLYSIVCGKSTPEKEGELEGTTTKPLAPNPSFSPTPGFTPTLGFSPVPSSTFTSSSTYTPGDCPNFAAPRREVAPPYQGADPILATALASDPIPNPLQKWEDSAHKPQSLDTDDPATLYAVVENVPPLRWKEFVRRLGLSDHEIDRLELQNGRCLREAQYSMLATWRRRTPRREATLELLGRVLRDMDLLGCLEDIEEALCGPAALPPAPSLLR
Method: as §1

[4] = target: T4, human PD1 on HEK293F cells (human, UniProt Q15116 25-288)
T4 construct: whole, on cells
T4 sequence (Q15116 25-288): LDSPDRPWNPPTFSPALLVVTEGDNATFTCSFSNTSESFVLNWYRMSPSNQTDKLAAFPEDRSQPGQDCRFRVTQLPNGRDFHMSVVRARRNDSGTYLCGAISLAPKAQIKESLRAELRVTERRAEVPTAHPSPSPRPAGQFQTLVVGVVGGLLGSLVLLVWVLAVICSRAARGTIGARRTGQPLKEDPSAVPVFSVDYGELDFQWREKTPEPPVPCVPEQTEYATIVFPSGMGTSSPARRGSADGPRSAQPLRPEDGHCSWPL
Method: as §1

[5] = target: T5, human Tim3 on HEK293F cells (human, UniProt Q8TDQ0 22-301)
T5 construct: whole, on cells
T5 sequence (looked up): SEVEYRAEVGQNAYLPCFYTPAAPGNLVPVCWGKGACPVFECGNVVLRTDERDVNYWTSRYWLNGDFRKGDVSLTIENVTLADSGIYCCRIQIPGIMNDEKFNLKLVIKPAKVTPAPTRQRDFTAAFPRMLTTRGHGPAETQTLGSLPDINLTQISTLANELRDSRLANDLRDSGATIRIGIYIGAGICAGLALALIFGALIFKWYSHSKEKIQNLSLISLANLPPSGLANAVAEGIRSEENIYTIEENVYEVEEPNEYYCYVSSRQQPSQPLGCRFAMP
Method: as §1

[6] = target: T6, human B7H3 on HEK293F cells (human, UniProt Q5ZPR3 29-534)
T6 construct: whole, on cells
T6 sequence (looked up): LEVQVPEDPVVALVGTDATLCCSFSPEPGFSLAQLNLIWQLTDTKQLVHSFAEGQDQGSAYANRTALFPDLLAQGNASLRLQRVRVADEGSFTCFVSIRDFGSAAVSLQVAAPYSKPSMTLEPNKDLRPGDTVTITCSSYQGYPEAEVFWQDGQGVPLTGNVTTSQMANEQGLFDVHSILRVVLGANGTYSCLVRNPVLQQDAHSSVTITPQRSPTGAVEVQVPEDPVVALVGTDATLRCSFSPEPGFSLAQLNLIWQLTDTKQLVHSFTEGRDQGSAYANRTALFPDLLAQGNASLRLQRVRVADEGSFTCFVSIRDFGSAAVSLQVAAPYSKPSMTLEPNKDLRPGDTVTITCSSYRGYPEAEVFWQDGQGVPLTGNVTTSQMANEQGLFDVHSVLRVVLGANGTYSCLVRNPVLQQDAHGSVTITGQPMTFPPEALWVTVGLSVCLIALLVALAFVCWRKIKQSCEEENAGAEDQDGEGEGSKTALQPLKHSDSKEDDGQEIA
Method: as §1

[7] = target: T7, human CD40 on HEK293F cells (human, UniProt P25942 21-277)
T7 construct: whole, on cells
T7 sequence (P25942 21-277): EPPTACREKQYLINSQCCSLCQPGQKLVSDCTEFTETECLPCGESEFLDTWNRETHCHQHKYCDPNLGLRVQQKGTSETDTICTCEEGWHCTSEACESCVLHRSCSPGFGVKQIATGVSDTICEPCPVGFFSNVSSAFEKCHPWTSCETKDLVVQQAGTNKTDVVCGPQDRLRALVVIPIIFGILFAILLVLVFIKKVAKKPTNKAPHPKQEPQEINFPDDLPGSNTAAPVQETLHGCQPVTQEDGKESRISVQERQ
Method: as §1

B1: TY21591 (antibody, V domains shown)
VH: EVQLVESGGGLVQPGGSLRLSCAASGFSLSTGGVAVSWIRQAPGKGLEWIGEIYHSGSTYYSPSLKSRVTISRDNSKNTLYLQLNSLRAEDTAVYYCARRIATATYFDYWGQGTLVTVSS
VL: DIQLTQSPSSLSASVGDRVTITCRASQTVFSRYLAWYQQKPGKAPKLLIYDASNRATGIPSRFSGSGSGTDFTLTISSLQPEDFATYYCQQSYYWPPWTFGQGTKVEIK
notes: human IgG1 (hIgG1) from Fab hit B15756
[1]
  % of cells in upper right quadrant (Q2): 0.22
  Mean: 5570
[2]
  % of cells in upper right quadrant (Q2): 0.42
  Mean: 11900
[3]
  % of cells in upper right quadrant (Q2): 0.33
  Mean: 6490

B2: TY21687 (antibody, V domains shown)
VH: EVQLVESGGGLVQPGGSLRLSCAASGFTFSGYAIHWVRQAPGKGLEWIGIISPSGGGTKYAQKFQGRVTISRDNSKNTLYLQLNSLRAEDTAVYYCARHPFAYWGQGTLVTVSS
VL: DIQLTQSPSSLSASVGDRVTITCRASQSVDFYGISFLDWYQQKPGKAPKLLIYDASNRATGIPSRFSGSGSGTDFTLTISSLQPEDFATYYCQQYVSSPPEYTFGQGTKVEIK
notes: human IgG1 (hIgG1) from Fab hit B15700
[4]
  % of cells in upper right quadrant (Q2): 5.96%
[5]
  % of cells in upper right quadrant (Q2): 1.85%
[6]
  % of cells in upper right quadrant (Q2): 1.29%

B3: TY21585 (antibody, V domains shown)
VH: EVQLVESGGGLVQPGGSLRLSCAASGFTFSDYAIHWVRQAPGKGLEWIGIISPSSGSTNYAQKFQGRVTISRDNSKNTLYLQLNSLRAEDTAVYYCARDIHSGSSGYYYGFDVWGQGTLVTVSS
VL: DIQLTQSPSSLSASVGDRVTITCRASESVDFFGISFLAWYQQKPGKAPKLLIYDASNRATGIPSRFSGSGSGTDFTLTISSLQPEDFATYYCQHYTSSPPVYTFGQGTKVEIK
notes: human IgG1 (hIgG1) from Fab hit B15709
[7]
  % of cells in upper right quadrant (Q2): 0.95
  Mean: 8270
